Measured values as given in patent publication US12571800B2, “Means and methods for treating angiogenesis-related diseases” (Heidelberg Biotech GmbH, priority 2011, dated 2026).
Like-named read-outs stand apart in the source and are kept apart here.

Tests used:
Lewis Lung Cancer tumors = assay: Sequential in-vivo passaging of LLC tumors under Fc-endostatin; parameters: species or system C57/B16 mice
Procedure: Dimerization of the NC-1 endostatin domains were achieved using IgG-Fc. […] Sequential in-vivo tumor passaging was performed to achieve prolonged and continuous exposure to anti-angiogenic therapy to enrich for the resistant tumor cell population.
Murine Lewis Lung Carcinoma (LLC) tumors were implanted s.c. into C57/B16 mice. Tumors were treated with a murine oligomeric-NC1 fragment, mFc-endostatin, at doses indicated. LLC tumors were exposed in-vivo for a prolonged period to mFc-endostatin by sequential transplantation of tumors (up to four passages, p4) once they evade therapy and reach a size of approximately 1000-2000 mm^3. Control tumors were also sequentially transplanted into new mice without mFc-endostatin treatment. Tumor volume was measured by caliper measurement (FIG. 8). After four passages, both mFc-endostatin resistant as well as control tumors were excised, total RNA was isolated and after QC hybridized on genome-wide microarrays for transcriptional analysis. Microarray data were analyzed using SUMO software package. Quantitative real-time RT-PCR was performed using Taqman technology to confirm the expression of candidate genes identified by microarray analysis.

ASPC-1 xenograft = assay: Immunofluorescence distribution in ASPC-1 xenograft mice; conditions: mouse, in vivo
Description: Immunohistochemistry was used to verify the distribution of Fc-endostatin in ASPC-1 xenograft mice after treatments. (A) The exogenous endostatin was detected by Alexa 488-labeled antibody (green) and vessel marker, CD31 was used and detected by Alexa 594-labeled antibody (red) in tumor, heart and kidney. (B) α-SMA, pericyte marker (red) was used to confirm the endostatin binding to tumor vessels. (C) Exogenous endostatin (green) distribution is similar to fibronectin (red) in tumor. […] (D) Endogenous collagen 18 (green) and fibronectin (red) were detected by polyclonal antibodies against endostatin and fibronectin in non-treated animal tumor. (E) Staining of Fc-endostatin and integrin α5β1. (F) Staining of vW and integrin α5β1. (G) E14.5 mouse brain embryonic sections were used to verify the distribution of fibronectin, VEGF and Fc-endostatin (Bar, 100 μm).
1.6 Immunohistochemistry. Tumors sections were rinsed by cold PBS and fixed with 4% paraformaldehyde for 10 min with before staining. Human Fc-endostatin was detected by Alexa 488 anti-human IgG. Antibodies to collagen 18 (R&D), fibronectin (R&D), integrin α5 (R&D) CD31 (BD Pharmingen, San Jose, CA) and von Willebrand Factor (Dako, Carpinteria, CA), α-SMA (Dako, Carpinteria, CA) were used for staining. The primary antibodies were detected by Alexa 488 or 594-labeled secondary antibodies (Molecular Probes, Eugene, OR). The sections were imaged by confocal-microscopy (model DM IRE2: Leica).
Immunofluorescence (IF) analysis was used to verify the systemic distribution of hFc-endostatin in an ASPC-1 xenograft animal model. […] In addition to CD31 (endothelial cell) staining, the pericyte marker, α-SMA was used to confirm the interaction of endostatin with blood vessels (FIG. 2B). To examine binding of endostatin to fibronectin, hFc-endostatin treated tumor sections of xenograft models were prepared. […] Co-localization of endogenous collagen 18 and endogenous fibronectin has also been detected (FIG. 2D). […] In addition, ex vivo E14.5 mouse brain embryonic sections were used to confirm this phenomenon. […]

[1] = in vivo, cited from earlier work
HUVECs = assay: Immunofluorescence, endothelial cell surface binding; type: cell-based, human
Procedure: HUVECs were incubated with Fc-endostatin and detected with Alexa 488 IgG or human NC-1 (hNC-1) trimer and detected by anti-His tag monoclonal antibody.
1.5 Immunocytochemistry. HUVECs were plated and grown on cover slips. […] The slips were incubated in the blocking buffer (2% BSA PBS) for 30 min. For hFc-endostatin or hFc groups, the slides were incubated with Alexa 488 antihuman IgG for imaging. For hNC-1 or IgG groups, the slides were incubated with mouse anti-His-tag monoclonal antibody, then probed by Alexa 488 anti-mouse IgG. Anti-fibronectin antibody (R&D) was used for secondary staining for all slides and probed by Alexa 594 anti-goat IgG and imaged by confocal-microscopy. DAPI counterstaining of nuclei is shown in blue.
2.3 Binding of oligomeric hFc-endostatin and hNC-1 to HUVECs. Immunoflourescence technique was employed to detect endothelial cell surface binding of oligomeric endostatin and NC-1.

[2] = in vivo; cited from earlier work

B1: Fc-endostatin: human endostatin with the Fc domain at its N-terminus, expressed in NS/0 cells (protein)
chain: HSHRDFQPVLHLVALNSPLSGGMRGIRGADFQCFQQARAVGLAGTFRAFLSSRLQDLYSIVRRADRAAVPIVNLKDELLFPSWEALFSGSEGPLKPGARIFSFDGKDVLRHPTWPQKSVWHGSDPNGRRLTESYCETWRTEAPSATGQASSLLGGRLLGQSAASCHHAYIVLCIENSFMTASK
modifications: left off: a dimerising Fc or GST
notes: human endostatin with the Fc domain at its N-terminus, expressed in NS/0 cells
tumor growth, passage 4 (P4) (Lewis Lung Cancer tumors; continuous exposure over four passages): growing even faster than non-treated control p4 tumors | tumor growth, first passage (p1) (Lewis Lung Cancer tumors; p1): strong initial inhibition of tumor growth | co-localization with fibronectin in tumor sections (ASPC-1 xenograft): co-localization with endogenous fibronection | co-localization with integrin α5β1 (ASPC-1 xenograft): co-localized with integrin α5β1 | systemic distribution (antibody to Fc) (ASPC-1 xenograft): found not only in tumor but also in heart and kidney endothelial cells | half-life in circulation [1]: longer half-life than endostatin | half-life in circulation ([1]; listed as endostatin fused to the Fc domain of an IgG antibody): longer than a week | binding to HUVECs (HUVECs; cells cultured only for 24 hours): poor binding | binding to HUVECs (HUVECs; incubation time prolonged to 72 hours): significant binding | smaller dose required for the same tumor reduction vs endostatin alone [2]: 50-100 fold
